Measured values taken from patent US6096504A, “Maize glutathione-S-transferase enzymes” (E. I. du Pont Nemours and Company, priority 1999, dated 2000).

How the values were obtained:
Assay type in all cases: biochemical
Conditions in all cases: purified enzyme, 0.4 mM electrophilic substrate, 4 mM glutathione, 0.1 M MOPS pH 7.0
[1] = GST conjugation of 1,2-epoxy-3-(p-nitrophenoxy)propane with glutathione (HPLC)
Description: (§1) The GST enzymes, expressed and purified as described in Example 5 were screened for their ability to metabolize a variety of substrates. Substrates tested included the three herbicide electrophilic substrates chlorimuron ethyl, alachlor, and Atrazine, and four model electrophilic substrates, 1-chloro-2,4-dinitrobenzene (CDNB), ethacrynic acid, t-stilbene oxide, and 1,2-epoxy-3-(p-nitrophenoxy)propane. The enzymes were purified as described in Example 5 and used in the following assay.
(§2) For each enzyme, the conjugation reaction with each electrophilic substrate was performed by incubating 0.3 to 30 μg enzyme in 0.1 M MOPS (pH 7.0) containing 0.4 mM of the electrophilic substrate. The reaction was inititated by the addition of glutathione to a final concentration of 4 mM. After 5 to 30 min, the reaction was terminated by the addition of 45 μL acetonitrile, microfuged for 10 min to remove precipitated protein, and then the supernatent was removed and added to 65 μl of water. This sample was chromatographed on a Zorbax C8 reverse phase HPLC column (3 μm particle size, 6.2 mm×8 cm) using a combination of linear gradients (flow=1.5 mL/min) of 1% H3 PO4 in water (solvent A) and 1% H3 PO4 in acetonitrile. The gradient started with 5% solvent B, progressing from 5% to 75% solvent B between 1 and 10 min, and from 75% to 95% solvent B between 10 and 12 min. Control reactions without enzyme were performed to correct for uncatalyzed reaction. Quantitation of metabolites were based on an assumption that the extinction coefficient of the conjugate was identical to that of the electrophilic substrate.

[2] = GST conjugation of Atrazine with glutathione (HPLC)
Description: as §1, §2

[3] = GST conjugation of t-stilbene oxide with glutathione (HPLC)
Description: as §1, §2

[4] = GST conjugation of CDNB with glutathione (HPLC)
Description: as §1, §2

[5] = GST conjugation of chlorimuron ethyl with glutathione (HPLC)
Description: as §1, §2

[6] = GST conjugation of alachlor with glutathione (HPLC)
Description: as §1, §2

[7] = GST conjugation of ethacrynic acid with glutathione (HPLC)
Description: as §1, §2

Molecule	activity of enzyme with 1,2-epoxy-3-(p-nitrophenoxy)propane [1] [nmol/min/mg]	activity of enzyme with Atrazine [2] [nmol/min/mg]	activity of enzyme with t-Stilbene Oxide [3] [nmol/min/mg]	activity of enzyme with CDNB [4] [nmol/min/mg]	activity of enzyme with Chlorimuron-Ethyl [5] [nmol/min/mg]	activity of enzyme with Alachlor [6] [nmol/min/mg]	activity of enzyme with Ethacrynic Acid [7] [nmol/min/mg]
ceb5.pk0051.f8: maize class III GST enzyme encoded by cDNA clone, expressed in E. coli (protein) MAGETKKGLVLLDFWVSPFGQRCRIALAEKGIAYEYSEQELLGGAKSDILLRSNPVHKKIPVLLHDGRPVCESLVILEYLEEAFPEASPRLLPDAAYARAQARFWAAYSDKVYKAGTRLWKLRGDARAQARAEIVQVVRNLDGELGDKAFFGGEAFGFVDVALVPFVPWLPSYERYGDFSVAEIAPRLAAWARRCAQRESVARTLHPPEKVDEFINLLKKTYGIE	14	0.08	0.02	2136	1.9	27	117
ceb1.pk0017.a5: maize class I GST enzyme encoded by cDNA clone, expressed in E. coli (protein) MAAPVTVYGPMLSPAVARVAACLLEKDVPFQIEPVDMSKGEHKSPSFLKLQPFGQVPAFKDHLTTVFESRAICRYICDQYADSGNQALFGKKEDGAVGRAAIEQWIESEGQSFNPPSLAIIFQLAFAPMMGRTTDLAVVEQNEAKLAKVLDVYDQRLGESQYFAGDDFSPGRPCALAQCRFPCEQNQQGWLDHREKESC	0	0.00	0.00	15	0.1	0	5
cs1.pk0010.c5: maize class I GST enzyme encoded by cDNA clone, expressed in E. coli (protein) MAAGLQVFGQPASTDVARVLTCLFEKKLEFELVRIDTFKTHHRLPEFIRLRDPNGQVTFKHGDKTLVDSRDICRYVCNQFPNYGNKSLYGSGALERASIEQWLQAEAQNFGPPSSALVFQLAFVPHLSHLGVRQDPAVIAENEDKLKQVLDVYDEILSKNEYLAGDEFTLADLSHLPNSHYIVNTERGRKLFTNKKNVAKWYDRLSKRETWVQVVKMQKEHPGAFK	0	0.00	0.00	30	0.1	0	9
m.15.5.d06.sk20: maize class II GST enzyme encoded by cDNA clone, expressed in E. coli (protein) MAEVEATVGRLMLYSYWRSSCSHRARIALNLKGVDYEYKAVNLLKGEQSDPEFVKLNPMKFVPALVDGSSVIGDSYAITLYLEDKYPEPPLLPQDLQKKALNHQIASIVASGIQPLHNLTVLRFIDQKVGAGESVLWTQQQIERGFTAIENLIQLKGCAGKYATGDEVQLADVFLAPQIYAAIERTKIDMSNYLTLARLHSEYMSHPAFEAALPGKQPDAPSSS	1	0.00	0.00	45	0.1	0	17
bms1.pk0023.g8: maize class I GST enzyme encoded by cDNA clone, expressed in E. coli (protein) MAPPMKVYGWAVSPWMARALVCLEEAGADYEIVPMSRCGGDHRRPEHLAKNPFGEIPVLEDGDLTLYQSRAIARYVLRKLKPELLREGDLEGSAMVDAWMEVEAHHMEPALWPIIRHSIIGQYVGRERDHQAVIDENLDRLRKVLPAYEARLSVCKYLVGDDISAADLCHFGFMRYFMATEYAGLVDAYPHVKAWWDALLARPSVQKVMAGMPPDFGYASGNIP	0	0.00	0.00	15	0.2	0	13
ceb5.pk0049.a11: maize class III GST enzyme encoded by cDNA clone, expressed in E. coli (protein) MAEEKKQGLQLLDFWVSPFGQRCRIALDEKGLAYEYLEQDLRNKSELLLRANPVHKKIPVLLHDGRPVCESLVIVQYLDEAFPEAAPALLPADPYARAQARFWADYVDKKLYDCGTRLWKLKGDGQAQARAEMVEILRTLEGALGDGPFFGGDALGFVDVALVPFTSWFLAYDRFGGVSVEKECPRLAAWAKRCAERPSVAKNLYPPEKVYDFVCGMKKRLGIE	30	0.01	0.01	3939	0.4	18	102
